Experiment [1] concerns the target T1, cynomolgus monkey CD3 expressed on T cells (cynomolgus pan T cells/PBMC, HSC-F cell line) (cynomolgus monkey, UniProt Q95LI5 22-198).
T1 construct: whole, on cells; On T cells in the CD3 complex with the other subunits; only the epsilon chain is written out; also called cyno CD3; cyno T cells
The experiment is described as follows: flow cytometry on cynomolgus T cells. As to the method: (§1) Frozen Cynomolgus monkey PBMCs were thawed then washed with RPMI-1640 media. Pan T cells were then isolated from the PBMCs using a negative isolation kit (Miltenyi Biotec, San Diego, Calif.) as per the manufacturer's instructions. The pan T cells were incubated in media alone or media containing serial dilutions of the anti-CD3 scFv-Fc constructs for one hour at 4° C. Commercially available SP34-2 antibody was used as positive controls while untreated cultures were used as negative controls. Following incubation with the anti-CD3 scFv constructs, the cells were washed and stained with a panel of conjugated antibodies specific for CD4, CD8, and IgG-Fc. The samples were acquired on a flow cytometer and analyzed using FlowJo version 10.1 software.
In general terms: Flow cytometry measures light scatter and fluorescence of single cells or particles in a stream.

Experiment [2] concerns the target T2, human CD3 expressed on T cells (Jurkat cells, human pan T cells/PBMC) (human, UniProt P07766 23-207).
T2 construct: whole, on cells; On T cells CD3 epsilon stands in the CD3 complex with the gamma, delta and zeta chains and the T-cell receptor; only the epsilon chain is written out; also called CD3+ Jurkat cells; human T cells
The experiment is described as follows: flow cytometry on human T cells gated CD4+, detection with anti-IgG-Fc, geo MFI. As to the method: (§2) Frozen human pan T cells or PBMCs were thawed and incubated with either media or serial dilutions of the anti-CD3 scFv-Fc constructs for one hour at 4° C. Commercially available SP34-2 antibody was used as positive controls while untreated cultures were used as negative controls. Following incubation with the anti-CD3 scFv constructs, the cells were washed and stained with a panel of conjugated antibodies specific for CD4, CD8, and IgG-Fc. The samples were acquired on a flow cytometer and analyzed using FlowJo version 10.1 software.

Experiment [3] has as its target T2, human CD3 expressed on T cells (Jurkat …). The experiment is described as follows: flow cytometry on human T cells. As to the method:
as §2

For experiment [4], the target named is T3, Recombinant CD3epsilon/delta Fc fusion protein (Sino Biological) (human, UniProt P07766 23-126; P04234 22-105).
T3 construct: Bought reagent; also called recombinant CD3 fusion protein; human CD3 antigen; not shown: Fc of the bought fusion protein; not described
The experiment is described as follows: SPR (ProteOn XPR36), Equilibrium Fit, mean of three runs. As to the method:
(§3) All SPR binding experiments were carried out using a BioRad ProteOn XPR36 instrument (Bio-Rad Laboratories, Hercules, Calif.) at 25° C. with 10 mM HEPES, 150 mM NaCl, 3.4 mM EDTA, and 0.05% Tween 20 at pH 7.4. Recombinant CD3epsilon/delta Fc fusion protein (Sino Biological, Wayne, Pa.) was captured on anti-Fc capture sensorchips. Purified antibodies were indirectly captured on the sensorchip by binding the recombinant CD3 fusion protein when injected at 25 μL/min for 240s (resulting in approx. 500 RUs) following a buffer injection to establish a stable baseline. Resultant KD values were determined from binding isotherms using the Equilibrium Fit model with reported values as the mean of three independent runs.

In experiment [5] the target is T2, human CD3 expressed on T cells (Jurkat …). The experiment is described as follows: cell ELISA on CD3+ Jurkat cells. As to the method: Cells were centrifuged and seeded in a 96-well filter plate in 50% complete culture medium/50% Blocking buffer. Equal volumes of 2× anti-CD3 scFv-Fc constructs or controls were added to cells and incubated for 1 hour. The plate was washed 4 times using vacuum filtration. An HRP-conjugated anti-human IgG Fc gamma specific secondary antibody was added to the wells and further incubated for 1 hour. The plate is washed 7 times by vacuum filtration followed by the addition of TMB substrate at room temperature. The reaction was stopped by adding 1 M sulfuric acid and supernatant was transferred into a clear 96-well plate. Absorbance (450 nm) was read on a Spectramax 340PC plate reader with path-check correction. Binding of the different scFv-Fc constructs to Jurkat cells and the apparent binding affinities are shown in FIG. 7 and Table 7, respectively.
(In general: An ELISA detects its analyte on a solid surface through an enzyme-linked reagent.)

For experiment [6], the target named is T3, Recombinant CD3epsilon/delta Fc fusion …. The experiment is described as follows: SPR (ProteOn XPR36), CD3epsilon/delta Fc fusion captured on anti-Fc chip, variant injected for 240 s; kinetic constants printed above the sensorgrams. As to the method:
as §3

Experiment [7] concerns the target T1, cynomolgus monkey CD3 expressed on T …. The experiment is described as follows: flow cytometry on cynomolgus pan T cells gated CD4+, detection with anti-IgG-Fc, geo MFI. As to the method:
as §1

For experiment [8], the target named is T4, monkey CD3 epsilon/delta expressed on transfected Lenti-X293T cells (cynoCD3epsilon-pcDNA3.1 and … (monkey, UniProt Q95LI5 22-198; Q95LI8 22-171).
T4 construct: whole, on cells
The experiment is described as follows: flow cytometry on transfected Lenti-X293T cells, hybridoma supernatant. As to the method:
Flow cytometry analysis of binding activity to monkey CD3. The monkey CD3 binding specificity of the antibody produced by each hybridoma determined to produce the antibody binding to human CD3 was further confirmed by flow cytometry. Each Lenti-X293T cell suspension was added at a concentration of 100 μL/well to a 96-well U-bottomed microplate and centrifuged to remove a supernatant. The cynoCD3c-pcDNA3.1- and cynoCD3δ-pcDNA3.1-transfected Lenti-X293T cells or the pcDNA3.1-DEST-transfected Lenti-X293T cells were suspended by the addition of the hybridoma culture supernatant and left standing at 4° C. for 1 hour. The cells were washed once with PBS containing 5% FBS, then suspended by the addition of Anti-Rat IgG FITC conjugate diluted 500-fold with PBS containing 5% FBS, and left standing at 4° C. for 30 minutes. The cells were washed twice with PBS containing 5% FBS and then resuspended in PBS containing 5% FBS and 2 μg/ml 7-aminoactinomycin D, followed by detection using a flow cytometer. The data was analyzed using Flowjo. After removal of 7-aminoactinomycin D-positive dead cells by gating, the FITC fluorescence intensity of live cells was plotted to a histogram.

Experiment [9] deals with T5, human CD3 epsilon/delta expressed on transfected cells (hCD3epsilon-pcDNA3.1 and hCD3delta-pcDNA3.1 in … (human, UniProt P07766 23-207; P04234 22-171).
T5 construct: whole, on cells
The experiment is described as follows: cell ELISA and flow cytometry on transfected cells, hybridoma supernatant.

This is an account of results in patent US20210277118A1 (Daiichi Sankyo, published 2021).

A word on the EC50: it is the concentration that produces a half-maximal response. Broadly, the EC50 (read off the curve) is the concentration needed to bring the measured effect to its halfway point. The Kd is the free concentration of one partner at which half of the binding sites on the other are occupied at equilibrium, for simple one-to-one binding. The koff is a measure of how fast the partners let go of each other. In general, kon refers to a measure of how fast the partners come together.

T1 sequence (Q95LI5 22-198): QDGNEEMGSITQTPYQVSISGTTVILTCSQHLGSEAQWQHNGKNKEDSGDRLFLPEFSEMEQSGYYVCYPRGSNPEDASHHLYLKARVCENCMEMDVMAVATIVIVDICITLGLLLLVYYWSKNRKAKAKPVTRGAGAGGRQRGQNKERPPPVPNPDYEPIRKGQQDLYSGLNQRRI
T2 sequence (P07766 23-207): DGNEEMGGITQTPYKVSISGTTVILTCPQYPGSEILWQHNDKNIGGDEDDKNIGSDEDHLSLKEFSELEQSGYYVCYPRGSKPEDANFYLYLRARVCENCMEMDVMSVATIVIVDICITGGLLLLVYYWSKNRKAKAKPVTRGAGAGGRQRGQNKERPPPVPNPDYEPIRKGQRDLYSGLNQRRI
T3 sequence (P07766 23-126, stated change not applied, chain 1 of 2): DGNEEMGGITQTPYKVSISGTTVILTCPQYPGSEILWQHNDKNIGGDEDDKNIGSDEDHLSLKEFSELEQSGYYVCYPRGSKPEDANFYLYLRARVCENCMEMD
T3 sequence (P04234 22-105, stated change not applied, chain 2 of 2): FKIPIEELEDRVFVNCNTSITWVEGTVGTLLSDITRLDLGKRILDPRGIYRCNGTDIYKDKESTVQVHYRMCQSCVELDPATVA
T4 sequence (Q95LI5 22-198, stated change not applied, chain 1 of 2): as the sequence (Q95LI5 22-198) above
T4 sequence (Q95LI8 22-171, stated change not applied, chain 2 of 2): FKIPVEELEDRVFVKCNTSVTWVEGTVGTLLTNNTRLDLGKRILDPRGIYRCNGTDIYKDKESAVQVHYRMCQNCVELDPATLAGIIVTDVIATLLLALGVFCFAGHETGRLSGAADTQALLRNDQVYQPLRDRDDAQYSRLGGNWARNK
T5 sequence (P07766 23-207, stated change not applied, chain 1 of 2): as the sequence (P07766 23-207) above
T5 sequence (P04234 22-171, stated change not applied, chain 2 of 2): as the sequence (Q95LI8 22-171, stated change not applied, chain 2 of 2) above, with V5I, K15N, V20I, T32S, N33D, N34I, A64T, N74S, L83V, R141H counted along it

B1: variant 21831, monovalent anti-CD3 scFv-heterodimeric Fc (VL hC3E-1_1L1d, VH hC3E-1(N53S)) (Fc fusion)
scFv: EVQLVESGGGLVQPGGSLRLSCAASGVTFNYYGMSWIRQAPGKGLEWVASITSSGGRIYYPDSVKGRFTISRENTQKTLYLQMNSLRAEDTAVYYCTLDGRDGWVAYWGQGTLVTVSSGGGGSGGGGSGGGGSQVVLTQPPSASGTPGQRVTISCKRNTGNIGSNYVNWYQQLPGTAPKLLIYRDDKRPDGVPDRFSGSKSGTSASLAISGLQSEDEADYYCQSYSSGFIFGGGTKLTVL
notes: scFv order VH-(GGGGS)3-VL on Fc chain A; chain B is Fc only; also called v21831; not shown: Fc-only chain B is also left out
Turning to B1, the EC50 is 40.7 nM in experiment [1], 1 nM in [3] and 3.96 nM in [5]. In experiment [2], the “EC50 (read off the curve)” value is roughly 1 µg/mL. Also, the Kd was 22.9 nM in experiment [4] and 23 nM in experiment [6]. In addition, the off-rate constant (koff) in [6] was 0.0225 s⁻¹. Also, in experiment [6], the kon was 977000 M⁻¹ s⁻¹.

B2: variant 19362, monovalent anti-CD3 scFv-heterodimeric Fc (VL hC3E-1_6L3b (D52N), VH hC3E-1) (Fc fusion, not shown: a dimerising Fc or GST; small tags and cut ends)
scFv: EVQLVESGGGLVQPGGSLRLSCAASGVTFNYYGMSWIRQAPGKGLEWVASITNSGGRIYYPDSVKGRFTISRENTQKTLYLQMNSLRAEDTAVYYCTLDGRDGWVAYWGQGTLVTVSSGGGGSGGGGSGGGGSNFMLTQPHSVSESPGKTVTISCKRNTGNIGSNYVNWYQQLPGTAPKTIIYRNDKRPDGVPDRFSGSIDSSSNSASLAISGLQSEDEADYYCQSYSSGFIFGGGTKLTVL
notes: scFv order VH-(GGGGS)3-VL on Fc chain A; chain B is Fc only; also called v19362
As to B2, the figures for the EC50 in experiment [1], in experiment [3] and in [5] were 1.9 nM, roughly 0.6 nM and 1.35 nM, respectively. The results for the Kd in [4] and in experiment [6] were 3 nM and 3.03 nM, respectively. For the same molecule, in experiment [7], the “EC50 (read off the curve)” value is roughly 2 µg/mL. Moreover, the dissociation rate constant (koff) in experiment [6] is 0.00242 s⁻¹. For the same molecule, the kon in experiment [6] turned out to be 798000 M⁻¹ s⁻¹.

B3: variant 18346, monovalent anti-CD3 scFv-heterodimeric Fc (VL hC3E-1 wildtype, VH hC3E-1 wildtype) (Fc fusion)
scFv: EVQLVESGGGLVQPGGSLRLSCAASGVTFNYYGMSWIRQAPGKGLEWVASITNSGGRIYYPDSVKGRFTISRENTQKTLYLQMNSLRAEDTAVYYCTLDGRDGWVAYWGQGTLVTVSSGGGGSGGGGSGGGGSNFMLTQPHSVSESPGKTVTISCKRNTGNIGSNYVNWYQQHEGSSPTTIIYRDDKRPDGVSDRFSGSIDRSSKSASLTISNLKTEDEADYFCQSYSSGFIFGGGTKLTVL
notes: scFv order VH-(GGGGS)3-VL on Fc chain A; chain B is Fc only; also called v18346; parental construct v18346; not shown: Fc-only chain B is also left out
B3: the EC50 was 1.4 nM in [1], roughly 0.3 nM in [3] and 0.34 nM in experiment [5]. The dissociation constant Kd amounted to 0.26 nM in experiment [4] and 0.117 nM in experiment [6]. For the same molecule, the “EC50 (read off the curve)” value in experiment [7] was roughly 1 µg/mL. In experiment [6], the koff came to 0.000163 s⁻¹. Moreover, the kon in experiment [6] is 1.39e+06 M⁻¹ s⁻¹.

B4: rat anti-CD3 monoclonal antibody C3-147 (antibody, rat IgG2b, V domains shown)
VH: EVQLVESGGGLVQPGRALKLSCVVSGVTFNYYGMSWIRQAPGKGLEWVASITNSGGRIYYPDSVKGRFTISRENTQKTLYLQMNSLRSEDTATYYCTLDGRDGWVAYWGQGTLVTVSS
VL: QFVLTQPNSVSTNLGTTVELSCKRNTGNIGSNYVNWYQQHEGRSPTTIIYRDDKRPDGVSDRFSGSIDRSSKSALLTINNVQTEDEADYFCQSYSSGFIFGGGTKLTVL
notes: Rat IgG2b with lambda chains (printed 'X chains'); tested as hybridoma culture supernatant
On to B4, for which the binding result in experiment [8] and in experiment [9] was “binds” throughout.
